For the assay, the target named is MBP-fused Cas3 (E. coli) (UniProt P38036). The assay can be described thus: single-molecule TIRF fluorescence.
UniProt P38036, sequence (P38036 whole entry, the tested form may be a part): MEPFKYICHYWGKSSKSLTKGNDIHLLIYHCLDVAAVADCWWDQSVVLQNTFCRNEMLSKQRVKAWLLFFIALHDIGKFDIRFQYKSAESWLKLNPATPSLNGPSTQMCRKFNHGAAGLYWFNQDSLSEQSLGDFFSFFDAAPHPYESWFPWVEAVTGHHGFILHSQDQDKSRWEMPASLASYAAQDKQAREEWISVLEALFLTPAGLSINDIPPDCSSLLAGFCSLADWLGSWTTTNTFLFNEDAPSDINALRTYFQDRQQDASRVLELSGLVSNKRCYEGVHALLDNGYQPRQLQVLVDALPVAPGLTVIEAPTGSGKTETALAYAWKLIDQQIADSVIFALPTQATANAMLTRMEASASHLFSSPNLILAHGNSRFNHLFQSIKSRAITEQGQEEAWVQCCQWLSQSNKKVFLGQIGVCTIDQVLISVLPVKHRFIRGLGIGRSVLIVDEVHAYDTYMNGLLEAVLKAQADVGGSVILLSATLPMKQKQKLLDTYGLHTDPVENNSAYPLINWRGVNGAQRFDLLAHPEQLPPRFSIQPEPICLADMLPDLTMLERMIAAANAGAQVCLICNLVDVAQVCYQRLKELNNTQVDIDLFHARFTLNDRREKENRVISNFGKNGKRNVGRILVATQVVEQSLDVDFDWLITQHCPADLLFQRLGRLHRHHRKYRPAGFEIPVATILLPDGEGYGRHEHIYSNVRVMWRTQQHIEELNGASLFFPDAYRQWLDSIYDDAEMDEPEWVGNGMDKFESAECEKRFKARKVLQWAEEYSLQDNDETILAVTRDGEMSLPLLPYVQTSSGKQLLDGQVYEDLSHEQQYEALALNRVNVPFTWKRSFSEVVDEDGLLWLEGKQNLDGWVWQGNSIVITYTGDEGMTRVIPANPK

“Cascade complex (RNA-guided surveillance complex), bound to dye-labelled target DNA (from UniProt Q46901 1-502)” showed a dwell-time of 1.63 s.

The values above are taken from article doi:10.1101/207886.
